Measured values: the supplement of paper PMC9170038

Tested on: K4 kissing-loop RNA reporter
Assay: apparent KD of K4 kissing-loop reporter; higher = weaker reporter binding
Conditions: Eterna round: R107
Protocol: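 RNA-MaP round R107: designed RNA switches with theophylline, tryptophan, arginine or FMN aptamers are transcribed on-chip within common flanks. They are titrated with a labelled K4 kissing-loop RNA reporter in RNA-MaP buffer (100 mM Tris pH 7.5, 80 mM KCl, 4 mM MgCl2), without ligand or with the indicated ligand. Median apparent KD per design.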

[1] = input ligand: theophylline 20 uM
[2] = input ligand: tryptophan 2.4 mM
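Note: bound reporter read as fluorescence of individual clusters on recovered sequencing chips by microscopy, with normalized cluster intensities fitted with a binding model.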

Sequence | apparent KD of K4 kissing-loop reporter (input ligand: FMN 200 uM) [nM] | apparent KD of K4 kissing-loop reporter (input ligand: arginine 13.2 mM) [nM] | apparent KD of K4 kissing-loop reporter (input ligand: none) [nM] | apparent KD of K4 kissing-loop reporter [1] [nM] | apparent KD of K4 kissing-loop reporter [2] [nM]
UGGACCUGACUCGAUAAGAGUCAAGGAGAUACCAGCCACGAAAGUGGCCCUUGGCAGCUCUGCCAGUGAUGUUGGUCAAGGUCCU [#SwitchBubble 7 #StaticStem] | 976 | 696 | 912 | 393 | 776
AGUUAUGUAUCAGGAUAUUAGUGAUGUUUGUUUAUGUUAGUGAUGUUGAUAUUUGUUUUAUGUAUUUAAGAAGGGAUUGAGAUGU [ccgcmullin] | 57.1 | 20.7 | 48 | 30.6 | 46.6
AGCGUCUGAAGAGGAUAUGACCAGUGAUGUUGGUUACUACCUCAAAUUAGUGUCUCGUCAAAAUCGUCAGAAGGCUUCGACGAGC [#09 K4 FMN B Exclusion] | 122 | 96.2 | 95.7 | 92.8 | 91.2
UGGAUAUAGUGAUGUUAUAUAGAGAUGGAUACCAGCUAAGAGAAUAGCCCUUGGCAGCCGAAAGAAGUAUCAUUAGAGAAGAAUG [ExTheophyl.Ae] | 294 | 231 | 280 | 253 | 212
UCCUUUGUUGCCAGUGAUGUUGGACAGGAAGGAGCGGGCAUAAGCCCAGGUAGGUCGCCUGUCAACUUUCUUAUAGCCCGAAGGU [KL-XArg-A19] | 441 | 352 | 368 | 424 | 370
UGGAGUUGACGAAAAGUCAACUCCUGGGAAGGAGCGGACGAAAGUCCAGGUAGGUCGCUCACUACCAGUGAUGUUGGUACUUAAA | 229 | 350 | 293 | 299 | 206
AAGGUCACUACUACAGUGAUGUUGUGGGAGCAGGAUAUGCAGAAAUGCAGAAGGGCUCGCUCCAAGUGACCGAAUGAAACAUUCA [Omei KL FMN A SS A v1] | 1170 | 876 | 839 | 1210 | 938
CUGACGUGCGGUAGGUUCAAGUGCUGGGAAGGAGCGCAGAUGACUGCAGGUAGGUCGCCCAGUGAUGUUGGGCUUUCCACCUACG [Quinbe] | 186 | 180 | 193 | 214 | 186
AACGCUGGUGAAUAACACUAGCGAAAUUCGCGAGGACCGGUACGGCCGCCACUCGCUAACUGCGAGUGAUGUUCGAUAAUAAAAU [Mat - Mod of OpenEnded 3 - D7] | 174 | 125 | 197 | 280 | 122
UGAUAGGACAGAAGGAGCGGUAGUGAUGUUGCCAAAAGUAUAAGGUGUCAAAAGACACCCUACCAGGUAGGUCGCUGUCCUAUCU | 319 | 346 | 354 | 541 | 340
AGAGAUAUAUGAGGAUAUGAGUUAGUUAAUGAGUUAGUUUUAGUGUUGUUUGGUUAGUGAUGUUAUUUAGAAGGCGUGAGUGAUG [cxfsmullin] | 89.7 | 66.4 | 67.7 | 96.9 | 60.8
UAGGAGUGAUGUUCCAUAUGUAAGGCCGAAGGAGCGGCAUUAUAGCCAGGUAGGUCGCGGCAGUACGUACCAGUGAUGUUGGAAA [KL-SSArg-A5] | 173 | 94.9 | 150 | 119 | 116
AAGCAGUCAGGAUCGAAGAUCCUGCAAAACCGAGGACCGGUACGGCCGCCACUCGGAGUGAUGUUCCGAAGACUGCAAAAUAAAA [#SwitchBubble 6] | 191 | 152 | 213 | 150 | 64.5
UGUAUGUGAUUUGAUACCAGACCAGCUGGUGGUUCACGAGUGAUGUUCGUGUUGGUUUGGGUCCCUUGGCAGCAAAUCGCAUACU [KL-SSTheoB12] | 159 | 121 | 144 | 128 | 140
AGAUUCGACACGGCCGCCACUUCCAGUGGCUGGUGUCAUGGUGCGCGUGAGUGAUGUUUAUGUGGAAGGACCGGGUGUUGAGUCU [KL-XTryp-B1 #analogue] | 938 | 554 | 917 | 606 | 1190
UGAUACCAGACGGCCGCCACUCCUGCAGUCAAAAGACUGCUAAAGGAAAUCGUCCAGUGAUGUUGGAGGACCGGGUCUGGUAUCU [TrypBX 16 #SwitchBubble #Palindromic #StaticStem] | 1120 | 719 | 1380 | 991 | 403
